Laboratory results published in patent publication US20120064106A1.

Target: TLR5 on RAW 424 (TLR5+) cells
Test: cell-based or functional assay

Row | Substance | TNF-α production by RAW 424 (TLR5+) cells, half-maximal stimulation [µM]
1 | P. aeruginosa type B flagellin (strain PAO1), recombinant full-length (from UniProt P72151 1-488) (ligand) | 40
2 | P. aeruginosa type A flagellin (strain PAK), recombinant full-length (from UniProt P21184 2-394) (ligand) | 1.6e-05
